Legend:
[1] = molecular target: the molecule itself; test: SEC + native gel or EMSA; purified CHASE4 domain in solvent
[2] = molecular target: the molecule itself; test: cryo-EM structure; ImcA with the substrate analog GMPCPP, 10 mg/ml, 3.07 Å, C2 symmetry

B1: CHASE4 domain of IsmP (CHASE4^IsmP) (domain or fragment)
chain: not shown
notes: CHASE4 domain of IsmP (PA2072) of Pseudomonas aeruginosa PAO1; interface residues Q51, W55 and P247 lie outside 59-220; also called CHASE4 (IsmP^40-255); source: E. coli BL21, purified (HisTrap HP)
Question: With B1 as the protein, how does the “stoichiometry N” value [1] read?
Answer: The value was 2.

B2: PA1851 protein (purified ImcA) (natural protein)
chain: MLARDSLVQAGLPDNPYARQLRNGFRWLRFEKELENEFREFLSWNSLMQRRAAIGVAFLIWALFIVADWMMVDIRLHPSLFEQLLGVRLGMIGLLLVVWPAAFLPSLRKVGDAIAPYCLLLINLAVLACDVLFEWHGVPRFTQLGATLGILAVFFPLGLAFWACVRLALLCLALNLAVFLLFGGEENLRTNLLNTLYNGLVVLICSFALYLQDYAQREQFLGRRLLGMMAEQDSLTGLVNRRYYELLAQRALEQGAREEKGVALILVDVDDFKAYNDHYGHPAGDAALRQLGVVLRQGARRPLDIAARLGGEEFAVLLYDSEEGNTLAIAERLRQAVEALGIEHLGSSAGPCLTISLGVAYSTSGMGLDALYREADRALYEAKDAGRNAVRVAFRQHDRLE
notes: ImcA (PA1851) of Pseudomonas aeruginosa PAO1; 6TM domain L47-E231, GGDEF domain R241-A393; Homodimer in the cryo-EM structure with GMPCPP; source: E. coli BL21 (DE3), purified (membrane fraction, DDM, Strep-Tactin, Superose 6)
Question: Does B2 bind [2]?
Answer: Result: binds
